Assay results published in the supplement of paper PMC10065799, “High-throughput profiling of sequence recognition by tyrosine kinases and SH2 domains using bacterial peptide display” (eLife, 2023).

Legend:
[1] = target: FGFR3 (UniProt P22607); assay: phosphorylation enrichment, bacterial display (enrichment ratio); higher = better substrate or ligand; peptides without Tyr show the background
[2] = test system: AncSZ; assay: as above
[3] = target: EPHB2 (UniProt P29323); assay: as above
[4] = target: FGFR1 (UniProt P11362); assay: as above
[5] = target: Fyn (UniProt P06241); assay: as above
[6] = target: Fes (UniProt P07332); assay: as above
[7] = test system: c-Src; assay: as above
[8] = target: MERTK (UniProt Q12866); assay: as above
[9] = target: Jak2 (UniProt O60674); assay: as above
[10] = test system: c-Abl (mouse); assay: as above
[11] = target: Hck (UniProt P08631); assay: as above
[12] = test system: Fer (mouse); assay: as above
[13] = target: EPHB1 (UniProt P54762); assay: as above
[14] = target: SHP2-C SH2; assay: SH2 binding enrichment of the phosphorylated peptide, bacterial display (enrichment ratio); higher = better substrate or ligand; peptides without Tyr show the background
[15] = target: c-Src SH2; assay: as above
[16] = target: Grb2 SH2 (UniProt P62993); assay: as above
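Wherever SH2 binding enrichment of the phosphorylated peptide, bacterial display is given: peptide library displayed on the E. coli surface as eCPX fusions, selected cells deep-sequenced, score is each peptide's frequency after selection divided by its frequency in the input.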
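Wherever phosphorylation enrichment, bacterial display is given: 11-residue human phosphosite peptides and single-mutation variants displayed on the E. coli surface, counted by deep sequencing, each peptide's frequency after selection divided by its frequency in the unselected input library; frequency after pTyr selection over input frequency; kinase dosed for 20-30% of maximal phosphorylation in three min.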

Sequence of MERTK (Q12866 whole entry, looked up): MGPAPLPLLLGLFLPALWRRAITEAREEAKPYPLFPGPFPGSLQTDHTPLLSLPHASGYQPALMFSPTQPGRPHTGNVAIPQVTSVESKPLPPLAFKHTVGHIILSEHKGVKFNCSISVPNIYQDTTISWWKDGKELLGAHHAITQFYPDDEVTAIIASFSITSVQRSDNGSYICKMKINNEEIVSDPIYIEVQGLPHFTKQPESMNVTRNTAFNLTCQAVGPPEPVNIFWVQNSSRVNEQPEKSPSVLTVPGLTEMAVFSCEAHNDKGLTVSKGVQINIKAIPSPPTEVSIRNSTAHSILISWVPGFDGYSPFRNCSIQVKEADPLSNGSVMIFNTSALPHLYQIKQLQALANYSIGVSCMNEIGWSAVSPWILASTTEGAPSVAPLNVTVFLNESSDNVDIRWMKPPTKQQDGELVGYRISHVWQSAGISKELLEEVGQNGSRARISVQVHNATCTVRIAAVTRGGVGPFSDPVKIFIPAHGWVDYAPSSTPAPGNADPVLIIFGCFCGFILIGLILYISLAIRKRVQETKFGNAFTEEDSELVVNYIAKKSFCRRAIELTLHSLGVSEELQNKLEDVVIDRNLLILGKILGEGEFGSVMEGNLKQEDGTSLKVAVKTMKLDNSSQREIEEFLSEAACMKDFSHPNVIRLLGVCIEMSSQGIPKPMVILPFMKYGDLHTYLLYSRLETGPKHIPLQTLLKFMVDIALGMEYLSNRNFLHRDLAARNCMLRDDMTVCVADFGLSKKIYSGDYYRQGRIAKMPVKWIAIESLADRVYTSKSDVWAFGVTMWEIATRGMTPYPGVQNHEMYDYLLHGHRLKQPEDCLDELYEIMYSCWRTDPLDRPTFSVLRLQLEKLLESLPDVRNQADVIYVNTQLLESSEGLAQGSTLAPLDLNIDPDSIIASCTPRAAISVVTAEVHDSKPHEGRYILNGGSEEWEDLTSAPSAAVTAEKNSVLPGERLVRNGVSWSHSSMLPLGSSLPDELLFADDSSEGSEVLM
Sequence of FGFR1 (P11362 whole entry, looked up): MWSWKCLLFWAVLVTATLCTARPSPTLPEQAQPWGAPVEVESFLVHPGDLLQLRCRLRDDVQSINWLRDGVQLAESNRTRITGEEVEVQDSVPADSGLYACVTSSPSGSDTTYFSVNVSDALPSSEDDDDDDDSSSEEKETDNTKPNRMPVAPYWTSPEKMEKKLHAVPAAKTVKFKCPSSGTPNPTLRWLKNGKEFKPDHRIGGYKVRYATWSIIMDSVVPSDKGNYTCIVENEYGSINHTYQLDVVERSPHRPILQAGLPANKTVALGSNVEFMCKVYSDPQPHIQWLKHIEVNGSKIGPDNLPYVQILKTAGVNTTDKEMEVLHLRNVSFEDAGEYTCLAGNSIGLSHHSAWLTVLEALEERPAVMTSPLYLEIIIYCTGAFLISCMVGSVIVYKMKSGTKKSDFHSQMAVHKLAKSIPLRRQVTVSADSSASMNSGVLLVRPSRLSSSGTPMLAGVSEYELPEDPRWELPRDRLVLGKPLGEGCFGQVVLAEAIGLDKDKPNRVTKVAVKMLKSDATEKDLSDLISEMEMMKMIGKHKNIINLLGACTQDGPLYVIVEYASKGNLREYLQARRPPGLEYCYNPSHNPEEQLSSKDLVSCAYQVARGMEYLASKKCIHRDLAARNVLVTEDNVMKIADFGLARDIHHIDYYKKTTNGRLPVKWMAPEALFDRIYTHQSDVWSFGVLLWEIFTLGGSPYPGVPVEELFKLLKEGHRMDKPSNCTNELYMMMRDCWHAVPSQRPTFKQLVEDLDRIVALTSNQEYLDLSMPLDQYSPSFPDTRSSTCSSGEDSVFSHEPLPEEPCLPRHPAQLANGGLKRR
Sequence of Jak2 (O60674 whole entry, looked up): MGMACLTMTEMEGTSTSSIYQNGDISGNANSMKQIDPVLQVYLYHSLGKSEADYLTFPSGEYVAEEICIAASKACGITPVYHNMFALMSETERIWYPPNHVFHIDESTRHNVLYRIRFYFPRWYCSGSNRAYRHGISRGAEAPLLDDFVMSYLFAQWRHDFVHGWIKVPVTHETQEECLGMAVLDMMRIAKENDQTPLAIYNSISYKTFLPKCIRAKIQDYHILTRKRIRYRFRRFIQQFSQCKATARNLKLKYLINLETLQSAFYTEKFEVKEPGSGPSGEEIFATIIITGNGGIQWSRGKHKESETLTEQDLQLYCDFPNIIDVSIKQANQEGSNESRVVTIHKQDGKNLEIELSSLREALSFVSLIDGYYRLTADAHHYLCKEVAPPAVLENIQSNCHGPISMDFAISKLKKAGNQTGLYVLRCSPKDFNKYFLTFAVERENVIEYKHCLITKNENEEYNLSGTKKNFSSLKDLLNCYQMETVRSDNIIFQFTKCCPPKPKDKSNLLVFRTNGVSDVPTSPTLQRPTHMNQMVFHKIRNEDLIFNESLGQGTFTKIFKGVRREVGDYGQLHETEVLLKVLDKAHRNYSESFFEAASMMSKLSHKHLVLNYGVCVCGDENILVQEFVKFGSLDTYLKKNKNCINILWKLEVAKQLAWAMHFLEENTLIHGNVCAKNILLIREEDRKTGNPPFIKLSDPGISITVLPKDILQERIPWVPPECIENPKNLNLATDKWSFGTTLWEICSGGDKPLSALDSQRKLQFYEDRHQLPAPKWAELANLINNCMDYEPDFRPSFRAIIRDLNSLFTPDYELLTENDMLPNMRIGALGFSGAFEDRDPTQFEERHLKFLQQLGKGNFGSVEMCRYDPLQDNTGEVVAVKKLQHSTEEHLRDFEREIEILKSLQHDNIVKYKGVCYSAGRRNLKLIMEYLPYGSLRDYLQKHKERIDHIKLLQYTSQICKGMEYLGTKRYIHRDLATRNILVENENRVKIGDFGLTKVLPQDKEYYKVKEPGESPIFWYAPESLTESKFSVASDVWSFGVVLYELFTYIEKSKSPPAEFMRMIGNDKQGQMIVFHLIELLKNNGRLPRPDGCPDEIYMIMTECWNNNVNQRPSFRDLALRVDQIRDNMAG
Sequence of Hck (P08631 whole entry, looked up): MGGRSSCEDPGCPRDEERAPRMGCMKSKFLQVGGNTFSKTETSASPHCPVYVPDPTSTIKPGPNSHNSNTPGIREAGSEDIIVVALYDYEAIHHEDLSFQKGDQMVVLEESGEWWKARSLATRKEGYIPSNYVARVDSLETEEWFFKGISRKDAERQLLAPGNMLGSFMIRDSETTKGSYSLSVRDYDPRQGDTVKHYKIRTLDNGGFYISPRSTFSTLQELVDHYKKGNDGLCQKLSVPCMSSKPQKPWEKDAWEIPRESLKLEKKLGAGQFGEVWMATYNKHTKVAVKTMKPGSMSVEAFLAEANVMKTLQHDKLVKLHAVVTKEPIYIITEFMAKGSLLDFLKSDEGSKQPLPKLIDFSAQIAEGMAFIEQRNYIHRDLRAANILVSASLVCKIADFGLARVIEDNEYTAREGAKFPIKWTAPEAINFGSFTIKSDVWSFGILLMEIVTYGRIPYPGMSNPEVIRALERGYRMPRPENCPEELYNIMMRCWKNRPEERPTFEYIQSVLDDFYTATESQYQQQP
Sequence of EPHB1 (P54762 whole entry, looked up): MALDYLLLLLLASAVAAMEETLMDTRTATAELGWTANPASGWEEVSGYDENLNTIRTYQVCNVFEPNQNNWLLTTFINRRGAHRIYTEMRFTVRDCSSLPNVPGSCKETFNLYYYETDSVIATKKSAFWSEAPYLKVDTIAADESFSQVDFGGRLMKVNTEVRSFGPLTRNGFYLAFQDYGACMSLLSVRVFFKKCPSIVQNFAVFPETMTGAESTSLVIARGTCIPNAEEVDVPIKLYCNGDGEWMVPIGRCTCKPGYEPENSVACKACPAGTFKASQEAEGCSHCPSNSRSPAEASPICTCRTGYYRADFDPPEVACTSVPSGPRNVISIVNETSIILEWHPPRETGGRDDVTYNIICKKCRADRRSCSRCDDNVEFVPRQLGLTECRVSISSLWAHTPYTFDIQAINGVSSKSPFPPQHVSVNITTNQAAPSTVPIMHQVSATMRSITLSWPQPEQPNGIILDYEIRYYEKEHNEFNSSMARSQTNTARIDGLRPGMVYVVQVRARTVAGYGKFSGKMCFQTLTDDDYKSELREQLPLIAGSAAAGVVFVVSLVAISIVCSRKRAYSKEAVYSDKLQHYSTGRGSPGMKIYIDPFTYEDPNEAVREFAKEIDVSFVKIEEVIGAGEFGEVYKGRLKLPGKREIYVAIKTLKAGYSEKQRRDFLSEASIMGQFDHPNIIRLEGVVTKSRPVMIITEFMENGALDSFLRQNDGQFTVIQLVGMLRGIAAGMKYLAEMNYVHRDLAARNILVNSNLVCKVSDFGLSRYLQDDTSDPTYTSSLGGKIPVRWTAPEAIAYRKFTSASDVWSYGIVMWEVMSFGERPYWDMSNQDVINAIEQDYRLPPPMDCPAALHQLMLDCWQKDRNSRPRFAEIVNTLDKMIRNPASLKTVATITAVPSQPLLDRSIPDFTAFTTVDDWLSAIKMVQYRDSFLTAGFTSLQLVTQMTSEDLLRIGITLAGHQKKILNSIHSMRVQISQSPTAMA
Sequence of Fyn (P06241 whole entry, looked up): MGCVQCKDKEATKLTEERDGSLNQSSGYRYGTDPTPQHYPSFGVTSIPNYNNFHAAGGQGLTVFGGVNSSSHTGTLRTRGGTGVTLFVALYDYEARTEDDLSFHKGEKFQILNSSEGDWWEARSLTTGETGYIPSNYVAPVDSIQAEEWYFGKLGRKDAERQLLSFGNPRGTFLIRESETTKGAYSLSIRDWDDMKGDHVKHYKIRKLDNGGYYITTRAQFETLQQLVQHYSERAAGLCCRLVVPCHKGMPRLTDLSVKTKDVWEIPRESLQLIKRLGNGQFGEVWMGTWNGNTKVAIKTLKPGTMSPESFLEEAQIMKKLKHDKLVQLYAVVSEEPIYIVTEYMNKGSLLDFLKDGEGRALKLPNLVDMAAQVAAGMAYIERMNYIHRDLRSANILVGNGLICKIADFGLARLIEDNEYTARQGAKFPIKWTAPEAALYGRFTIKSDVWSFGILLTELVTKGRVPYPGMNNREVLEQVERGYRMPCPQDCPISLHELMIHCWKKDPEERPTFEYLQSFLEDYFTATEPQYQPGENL

Row | Sequence | SH2 binding enrichment [14] | SH2 binding enrichment [15] | SH2 binding enrichment [16] | phosphorylation enrichment [1] | phosphorylation enrichment [2] | phosphorylation enrichment [3] | phosphorylation enrichment [4] | phosphorylation enrichment [5] | phosphorylation enrichment [6] | phosphorylation enrichment [7] | phosphorylation enrichment [8] | phosphorylation enrichment [9] | phosphorylation enrichment [10] | phosphorylation enrichment [11] | phosphorylation enrichment [12] | phosphorylation enrichment [13]
1 | DDKEYYSVHNK [MET_Y1235_Y1230D] | 0.961 | 0.461 | 0.813 | 1.51 | 1.93 | 0.629 | 1.6 | 0.529 | 1.06 | 0.874 | 0.405 | 1.17 | 0.942 | 0.791 | 0.603 | 0.563
2 | DDKQPYEKKAA [HMGB1_Y144] | 0.741 | 0.606 | 0.964 | 0.629 | 0.988 | 0.464 | 0.493 | 0.518 | 0.947 | 0.436 | 0.415 | 0.851 | 0.539 | 0.536 | 0.475 | 0.585
3 | DDSNLYINVKL [MTHFD1_Y52] | 0.496 | 0.457 | 0.824 | 0.994 | 1.45 | 0.804 | 0.702 | 0.443 | 1.63 | 0.442 | 0.424 | 1.56 | 1.08 | 0.607 | 0.751 | 0.777
4 | DEENFYQGSME [ASCC1_Y36_D34N] | 0.701 | 0.556 | 0.891 | 0.647 | 1.3 | 0.604 | 0.465 | 0.498 | 1.36 | 0.733 | 0.517 | 1.05 | 0.821 | 0.7 | 0.624 | 0.588
5 | DGTGRYLCNAC [GATA5_Y208_H207R] | 0.644 | 0.487 | 0.976 | 0.522 | 0.552 | 0.4 | 0.475 | 0.424 | 0.573 | 0.349 | 0.383 | 0.455 | 0.523 | 0.375 | 0.362 | 0.4
6 | DHAGTYGLGDR [MAPT_Y18] | 0.783 | 0.588 | 0.797 | 0.45 | 0.429 | 0.304 | 0.406 | 0.48 | 0.576 | 0.533 | 0.352 | 0.507 | 0.442 | 0.43 | 0.3 | 0.363
7 | DIMDLYNQPEP [IL36A_Y96] | 0.597 | 0.557 | 0.879 | 0.688 | 1.5 | 0.602 | 0.491 | 0.69 | 1.21 | 1.06 | 0.481 | 1.55 | 0.852 | 0.817 | 0.66 | 0.547
8 | DLDPNYVLSSR [CKM_Y125] | 0.75 | 0.528 | 0.765 | 0.714 | 1.17 | 0.636 | 0.465 | 0.416 | 1.01 | 0.534 | 0.464 | 0.759 | 0.528 | 0.473 | 0.394 | 0.523
9 | DLLMQHPKAQG [FAM83C_Y600_Y600H] | 0.836 | 0.466 | 0.996 | 0.892 | 0.566 | 0.332 | 0.5 | 0.509 | 0.693 | 0.646 | 0.53 | 0.801 | 1.46 | 0.523 | 0.483 | 0.515
10 | DLLNSYTENEG [HSPA4L_Y600_I601T] | 0.882 | 0.457 | 0.7 | 0.759 | 1.17 | 0.618 | 0.578 | 0.614 | 1.24 | 0.616 | 0.492 | 1.16 | 0.623 | 0.603 | 0.446 | 0.482
11 | DLVLQYLRVPL [F9_Y371_A366D] | 1.23 | 0.776 | 1.47 | 0.757 | 1.09 | 0.525 | 0.528 | 0.518 | 1.13 | 0.46 | 0.404 | 3.15 | 0.617 | 0.469 | 0.435 | 0.489
12 | DNPAKYFILES [DPP10_Y512] | 0.749 | 0.834 | 0.832 | 0.715 | 0.833 | 0.567 | 0.508 | 0.485 | 1.04 | 0.442 | 0.542 | 0.955 | 0.558 | 0.51 | 0.419 | 0.544
13 | DTKPAYQNLRQ [BOD1_Y82] | 0.666 | 0.864 | 11.8 | 0.452 | 0.462 | 0.35 | 0.434 | 0.383 | 0.541 | 0.38 | 0.313 | 0.524 | 0.719 | 0.349 | 0.385 | 0.38
14 | DVLVEYQEEGR [GNS_Y416_G418E] | 0.696 | 0.505 | 0.894 | 0.884 | 1.32 | 0.617 | 0.59 | 0.593 | 1.21 | 0.496 | 0.51 | 1.05 | 0.642 | 0.661 | 0.578 | 0.634
15 | EAVSIYQFHGQ [CBLC_Y402] | 0.511 | 0.464 | 0.757 | 0.594 | 1.01 | 1.62 | 0.554 | 5.93 | 0.926 | 7.06 | 5.19 | 0.852 | 0.969 | 3.09 | 10.4 | 2.31

Continued, in another order:

Row | SH2 binding enrichment [14] | SH2 binding enrichment [15] | SH2 binding enrichment [16] | Sequence | phosphorylation enrichment [1] | phosphorylation enrichment [2] | phosphorylation enrichment [3] | phosphorylation enrichment [4] | phosphorylation enrichment [5] | phosphorylation enrichment [6] | phosphorylation enrichment [7] | phosphorylation enrichment [8] | phosphorylation enrichment [9] | phosphorylation enrichment [10] | phosphorylation enrichment [11] | phosphorylation enrichment [12] | phosphorylation enrichment [13]
16 | 0.793 | 0.448 | 0.916 | DEDFLYREELA [POR_Y575_YF] | 0.725 | 1.17 | 0.594 | 0.536 | 0.443 | 1.21 | 0.487 | 0.489 | 1.15 | 0.763 | 0.44 | 0.544 | 0.506
17 | 0.711 | 0.621 | 1.01 | DEQKKYYNAMK [SCN5A_Y1494_E1489D] | 0.508 | 0.874 | 0.543 | 0.575 | 0.442 | 0.772 | 0.39 | 0.572 | 0.531 | 0.594 | 0.458 | 0.35 | 0.613
18 | 0.75 | 0.706 | 1.02 | DFCDLYGGEKF [PTPN11_Y66_Y63C_YF] | 0.832 | 1.03 | 0.564 | 0.575 | 1.35 | 1.33 | 2.78 | 0.54 | 0.908 | 0.833 | 1.76 | 0.672 | 0.511
19 | 2.13 | 1.08 | 1.67 | DFKIIYIVPMR [SNRNP200_Y540_A542V] | 0.653 | 1.09 | 0.532 | 0.55 | 0.412 | 1.11 | 0.42 | 0.366 | 0.952 | 1.74 | 0.382 | 0.487 | 0.525
20 | 0.578 | 0.364 | 0.635 | DFPIGYPSFLA [TBCK_Y153_YF] | 0.631 | 0.79 | 0.503 | 0.578 | 0.517 | 1.07 | 0.535 | 0.37 | 0.748 | 0.594 | 0.481 | 0.459 | 0.477
21 | 1.16 | 0.587 | 1.05 | DKANRYFSPNF [PTEN_Y336] | 0.461 | 0.583 | 0.301 | 0.397 | 0.323 | 0.521 | 0.362 | 0.374 | 0.488 | 0.438 | 0.402 | 0.375 | 0.296
22 | 1.11 | 0.44 | 0.83 | DKEKWYPLGNS [PIK3C2G_Y1438] | 0.569 | 0.762 | 0.441 | 0.384 | 0.366 | 0.868 | 0.345 | 0.292 | 0.681 | 0.488 | 0.372 | 0.422 | 0.43
23 | 0.88 | 0.413 | 0.711 | DKGTLYIVEQI [PLBD1_Y375] | 0.703 | 0.985 | 0.525 | 0.423 | 0.492 | 1.09 | 0.383 | 0.355 | 1.03 | 0.737 | 0.413 | 0.463 | 0.579
24 | 0.853 | 0.766 | 0.99 | DKNSSYFADWL [TUBB8_Y340] | 1.38 | 1.13 | 0.53 | 1.51 | 0.584 | 1.09 | 0.512 | 1.15 | 1.39 | 0.746 | 0.492 | 0.564 | 0.573
25 | 0.936 | 0.48 | 0.81 | DLITAYRAHGF [PDHA1_Y118_H113D] | 0.54 | 0.543 | 0.428 | 0.525 | 0.401 | 0.756 | 0.373 | 0.355 | 0.563 | 0.535 | 0.49 | 0.387 | 0.409
26 | 0.687 | 0.598 | 0.918 | DLVSEYQQFQD [TUBB3_Y422_YF] | 1.01 | 1.52 | 0.662 | 0.671 | 0.675 | 1.33 | 0.657 | 0.511 | 1.25 | 0.8 | 0.643 | 0.58 | 0.721
27 | 0.8 | 0.714 | 0.865 | DNEALYDICFC [TUBB3_Y208_R213C] | 0.992 | 6.01 | 5.33 | 0.748 | 7.33 | 1.73 | 6.25 | 8.05 | 1.46 | 2.07 | 5.92 | 12.5 | 4.22
28 | 0.686 | 0.605 | 0.782 | DSMQSYDLDFP [UNC13B_Y243_YF] | 0.646 | 1.15 | 0.546 | 0.537 | 0.48 | 1.02 | 0.569 | 0.453 | 1.03 | 0.623 | 0.461 | 0.541 | 0.642
29 | 0.456 | 0.733 | 0.915 | DSMQSYDLDYP [UNC13B_Y243] | 0.673 | 1.3 | 0.552 | 0.665 | 0.466 | 0.946 | 0.474 | 0.405 | 1.45 | 0.496 | 0.474 | 0.451 | 0.4
